The source of these data is article PMC4221134 (Advances in biological regulation, 2013).

This series concerns the molecule itself. Briefly: native MS.

B1: MST1 SARAHmyc (domain or fragment)
chain: DYEFLKSWTVEDLQKRLLALDPMMEQEIEEIRQKYQSKRQPILDAIEAKKRRQQNF
As for B1, the binding result is “binds”.

B2: S-RASSF5 SARAH (domain or fragment)
chain: GEVEWDAFSIPELQNFLTILEKEEQDKIQQVQKKYDKFRQKLEEALRESQGKPG
In the case of B2, the binding result is on record as “binds”.
